For one molecule, EC50 results are on record in patent CN116789813A.

The target in the test is 突变型金黄色葡萄球菌α-溶血素(mHla), Hla(H35L) (Staphylococcus aureus (strain MRSA 252)). The test is described as follows: ELISA, mHla coated at 2μg/mL, anti-human IgG Fab-HRP detection.

B1: 全人源Hla单克隆抗体Hla-38 (antibody, V domains shown)
VH: QVQLLESGGGVVQPGRSLRLSCIVSGFDLNSFAMHWVRQPPGKGLEWVAVIWHDGSERFYAASVKGRFTISRDTSRNTLFLQMNSLRVEDTAVYYCAKSGDYYENSGYFGSWGQGALVTVSS
VL: ELVLTQSPATLSVSPGERATLSCRASQSVGNDLAWYQQKPGQAPRLLIYGASTRATGIPARFSGSGFGTEFTLTISSLQSEDFAVYYCQQYNNWWTFGQGTKVDIK
The EC50 is the concentration that produces a half-maximal response. Higher therefore signals a less potent agent. As for B1, the EC50 is 0.849 µg/mL.
